Laboratory results from patent US20220348684A1 (YALE UNIVERSITY, published 2022).
Numbering of substitutions follows the chain as printed. Ends that are not written are not given here. BSA = bovine serum albumin (carrier protein)

T1: 1F peptide conjugated to BSA
T1 construct: Renalase peptide present only in renalase-1; also called 1F-BSA protein; 1F antigen; not shown: BSA carrier, chemically conjugated via the cysteine
T1 peptide: C(BSA)VLEALKNYI

T2: peptide 3A conjugated to BSA
T2 construct: Renalase-2 specific peptide; also called 3A5; not shown: BSA carrier, chemically conjugated via the cysteine
T2 peptide: PSAGVILGC(BSA)

B1: monoclonal antibody 1D-28-4 (antibody, V domains shown)
VH: QSVEESGGRLVTPGTPLTLTCTVSGFSLSSFAVGWVRQAPGKGLEYIGIISSVGITRYASWAAGRFTISKTSTTVDLKITSPTTEDTATYFCARYGYSGDVNRLDLWGQGTLVTVSS
VL: AQVLTQTASPVSAAVGGTVTINCQASQSVYDNNNLAWYQQKPGQPPKQLIYGASTLASGVSSRFKGSGSGTQFTLTISGVQCDDAATYYCLGEFSCSSADCFAFGGGTEVVVKG
notes: also called m28-RNLS; Ren1D 28-4
B2: M28-K5 (humanized, affinity-matured variant of M28) (antibody, V domains shown)
VH: EVQLVESGGGLVQPGGSLRLSCAASGFNLSSFAVHWVRQAPGKGLEWVALISGRGTRFYADSVKGRFTISKDTSKNTAYLQMNSLRAEDTAVYYCARHWYSGGVVRLDAWGQGTLVTVSS
VL: DIQMTQSPSSLSASVGDRVTITCRASQSVYDNNNVAWYQQKPGKAPKLLIYGASTLYSGVPSRFSGSRSGTDFTLTISSLQPEDFATYYCLGEGPCSVTDCLIFGQGTKVEIKR
B3: M28-K2 (humanized, affinity-matured variant of M28) (antibody, V domains shown)
VH: B2 VH with S52G, G53V, T56S, R57L, F58Y
VL: B2 VL
B4: M28-K13 (humanized, affinity-matured variant of M28) (antibody, V domains shown)
VH: B2 VH with S52G, G53V, T56S, R57L, F58Y
VL: B2 VL with G94F, P95S, V98S, T99A, L102F, I103A
B5: M28-K14 (humanized, affinity-matured variant of M28) (antibody, V domains shown)
VH: B2 VH with H98Y, W99G, G103D, V105N, A109L
VL: B2 VL
notes: the residue limits are my own count; also called M28-14
B6: M28-K16 (humanized, affinity-matured variant of M28) (antibody, V domains shown)
VH: B2 VH
VL: B2 VL with G94F, P95S, V98S, T99A, L102F, I103A
notes: the residue limits are my own count
B7: monoclonal antibody 1F-26-1 (antibody, V domains shown)
VH: QSVKESEGGLFKPTDTLTLTCTVSGFSLSSYGVTWVRQAPGNGLEWIGLIGDRGTTFYASWAKSRSTITRNTNLNTVTLKMTRLTAADTATYFCARGSGYGARIWGPGTLVTVSS
VL: AQVLTQTPSPVSAAVGGTVTINCQSSQSVYKNNYLAWYQQKPGQPPKLLIYETSKLASGVPPRFSGSGSGTQFTLTISSVQCDDAATYYCQGGYSGVDFMAFGGGTEVVVKG
notes: Rabbit monoclonal from hybridoma, raised against the 1F peptide; also called IF 26-1
B8: monoclonal antibody 1F-42-7 (antibody, V domains shown)
VH: B7 VH with S29T, S30T, F57Y, A62V, K63N, S64G, S114A
VL: B7 VL with V11M, V15L, S28T, K31N, A36S, A57S
notes: Rabbit monoclonal from hybridoma, raised against the 1F peptide; Biotinylated in the biotin ELISA and Biacore assays; also called IF 42-7; M42
B9: monoclonal antibody 3A-5-2 (antibody, V domains shown)
VH: QSLEESGGRLVTPGTPLTLTCTVSGFSLNNYHIYWVRQAPGKGLEYIGIIFNGGTYYARWTKGRFTISKTSTTVDLKMTSLTTEDTATYFCARGDGIWGPGTLVTVSL
VL: AQVLTQTPASVSAAVGGTVTINCQASQSVFNNNYLAWYQQKPGQPPKRLIYSASTLASGVSSRFKGSGSGTEFTLTMSGVECDDAATYYCAGSFDCNSGDCVAFGGGTEVVVKG
notes: Rabbit monoclonal from hybridoma, raised against the renalase-2 specific peptide 3A (3A5)

Tests used:
human renalase [1] = target: T3, human renalase (human, UniProt Q5VYX0 18-342, limits assumed); experiment: cell-based or functional assay
T3 sequence (Q5VYX0 18-342 limits assumed): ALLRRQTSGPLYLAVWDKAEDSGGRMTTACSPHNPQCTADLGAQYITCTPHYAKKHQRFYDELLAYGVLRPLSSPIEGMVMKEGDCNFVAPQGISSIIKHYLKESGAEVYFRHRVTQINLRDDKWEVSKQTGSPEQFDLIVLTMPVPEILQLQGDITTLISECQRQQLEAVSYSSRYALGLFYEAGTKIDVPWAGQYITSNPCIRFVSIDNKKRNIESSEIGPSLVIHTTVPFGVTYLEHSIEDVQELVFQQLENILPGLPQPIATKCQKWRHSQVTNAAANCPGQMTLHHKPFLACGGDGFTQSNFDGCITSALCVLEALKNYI

mouse renalase [2] = target: T4, mouse renalase (mouse, UniProt A7RDN6 18-342, limits assumed); experiment: cell-based or functional assay
T4 sequence (A7RDN6 18-342 limits assumed): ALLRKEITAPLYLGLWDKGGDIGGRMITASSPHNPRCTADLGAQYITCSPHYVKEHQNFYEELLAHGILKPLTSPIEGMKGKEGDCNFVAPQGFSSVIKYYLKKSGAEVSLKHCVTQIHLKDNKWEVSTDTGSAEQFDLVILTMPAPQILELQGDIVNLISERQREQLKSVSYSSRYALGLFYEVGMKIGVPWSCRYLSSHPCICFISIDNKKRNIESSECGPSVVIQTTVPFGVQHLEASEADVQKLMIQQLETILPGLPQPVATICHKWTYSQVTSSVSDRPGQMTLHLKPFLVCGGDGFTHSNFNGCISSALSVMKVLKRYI

human renalase [3] = target: T3, human renalase; experiment: multipoint ELISA (A450), IgG dilution series on human renalase
[4] = target: T5, renalase-1 (full-length recombinant protein) (human, UniProt Q5VYX0 18-342, limits assumed); experiment: competition ELISA on coated renalase-1: unconjugated 1D 28-4 titrated against a constant amount of biotinylated 1D 37-10, NeutrAvidin-HRP [panel A]
T5 construct: Coated on ELISA plates as bacterially expressed renalase-1; Injected as purified recombinant renalase-1 in the Biacore assay; also called renalase-1 protein; RNLS
T5 sequence (Q5VYX0 18-342 limits assumed): as the sequence (Q5VYX0 18-342 limits assumed) above
Description: (§1) Specificity of Epitope Binding: Bacterially-expressed renalase isoforms, diluted to 100 ng/well in PBS, were bound to a 96 well microtiter plate by overnight incubation at 4° C. The plate was blocked with a solution of 8% NFDM in PBS for one hour at 33° C. The renalase protein was probed with a dilution series of an unconjugated antibody, typically starting at 1 μg/mL, mixed with a different biotinylated antibody. […] Both antibodies were mixed together in PBST and applied as one addition of 50μL per well. After one hour incubation at 33° C., the plate was rinsed three times with PBST. Binding of the biotinylated antibody to renalase was assayed by adding HRP-conjugated Neutravidin (HRP-NA) at 0.4 ng/mL, 50 μL per well. The plate was incubated at room temperature for 40 minutes. After incubation, the plate was washed three times with PBST and once with PBS. The HRP substrate 3, 3′, 5, 5′-tetramethylbenzidine (TMB) was added to 100 μL per well, and plate was incubated for approximately 5 minutes at room temperature. To stop the reaction, 100 μL 2 N H2504 was added to each well. The plate was read at 450 nm in a spectrophotometer.
(§2) Bacterially-expressed renalase-1, diluted to 100ng/well in PBS, was bound to a 96 well microtiter plate by overnight incubation at 4° C. […]

mouse renalase [5] = target: T4, mouse renalase; experiment: multipoint ELISA (A450), IgG dilution series on mouse renalase
[6] = target: T1, 1F peptide conjugated to BSA; experiment: ELISA on coated 1F peptide-BSA conjugate, antibody dilution series, anti-rabbit IgG-HRP
Description: (§3) Peptide-Antigen Specificity ELISA: Bovine serum albumin (BSA)-conjugated renalase peptide antigen, diluted to 100 ng/well in PBS, was bound to a 96 well microtiter plate by overnight incubation at 4° C. The plate was blocked with a solution of 8% NFDM in PBS for one hour at 33° C. The peptide antigen was probed with a dilution series of the antibody raised against it, or with an antibody raised against a different antigen. The starting concentration of antibody was typically 5 μg/mL, with two-fold dilution steps prepared in PBS containing Tween-20 to 0.05% (PBST). After one hour incubation at 33° C., the plate was rinsed three times with PBST. Antibody binding was assayed by adding HRP-conjugated anti-rabbit IgG at 50 ng/mL, 50 μL per well. The plate was incubated at room temperature for 40 minutes. After incubation, the plate was washed three times with PBST and once with PBS. The HRP substrate 3, 3′, 5, 5′-tetramethylbenzidine (TMB) was added to 100 μL per well, and plate was incubated for approximately 5 minutes at room temperature. To stop the reaction, 100 μL 2 N […] was added to each well. The plate was read at 450 nm in a spectrophotometer.
(§4) Renalase peptides used for immunization were synthesized, then conjugated to bovine serum albumin (BSA). […] The plate was read at 450 nm in a spectrophotometer after reaction of HRP with the substrate TMB. […]

[7] = target: T6, renalase-2 (recombinant protein) (human, UniProt Q5VYX0 18-293); experiment: ELISA on coated renalase-2, antibody dilution series (axis: log (ng/ml) supe), anti-rabbit IgG-HRP
T6 construct: Bacterially expressed and coated on ELISA plates; also called renalase-2 isoform
T6 sequence (Q5VYX0 other isoform, or with tags, fused parts or gaps limits assumed): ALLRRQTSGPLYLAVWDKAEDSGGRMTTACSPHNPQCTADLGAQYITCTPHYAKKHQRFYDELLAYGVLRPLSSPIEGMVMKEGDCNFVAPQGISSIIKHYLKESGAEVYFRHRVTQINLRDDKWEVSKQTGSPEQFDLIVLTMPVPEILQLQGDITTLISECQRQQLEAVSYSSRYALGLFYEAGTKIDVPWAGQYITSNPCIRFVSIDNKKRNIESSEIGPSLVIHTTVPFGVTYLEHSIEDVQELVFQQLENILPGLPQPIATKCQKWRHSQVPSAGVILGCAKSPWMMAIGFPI
Description: Bacterially-expressed renalase-1 and 2 isoforms, were diluted to 100 ng/well in PBS and bound to a 96 well microtiter plate. The plate was blocked with a solution of 8% NFDM in PBS for one hour at 33° C. The renalase proteins were probed with a dilution series of the antibodies 1D-28-4, 1D-37-10, 1F-42-7, 1F-26-1 and 3A5-2. The starting concentration of antibody was typically 1μg/mL, with two-fold dilution steps prepared in PBS containing Tween-20 to 0.05% PBST. After one hour incubation at 33° C., the plate was rinsed three times with PBST. Antibody binding was assayed by adding HRP-conjugated anti-rabbit IgG at 50 ng/mL, 50μL per well. The plate was incubated at room temperature for 40 minutes. After incubation, the plate was washed three times with PBST and once with PBS. The HRP substrate 3, 3′, 5, 5′-tetramethylbenzidine (TMB) was added to 100 μL per well, and plate was incubated for approximately 5 minutes at room temperature. To stop the reaction, 100 μL 2 N H₂SO₄ was added to each well. The plate was read at 450 nm in a spectrophotometer.

[8] = target: T5, renalase-1 (full-length recombinant …); experiment: competition ELISA on coated renalase-1: unconjugated 1F 42-7 titrated against a constant amount of biotinylated 1F 26-1, NeutrAvidin-HRP [panel A]
Description: as §1, §2

[9] = target: T2, peptide 3A conjugated to BSA; experiment: ELISA on peptide antigen
Description: as §3, §4

Row | Binder | IC50 of % cell survival, BxPC3 (human pancreatic adenocarcinoma) cells (human renalase [1]) | IC50 of % cell survival, YUMM1.7 (mouse melanoma) cells (mouse renalase [2]) | EC50 (read off the curve) (human renalase [3]) | further results
1 | B1 | 1.5 nM | 70 nM | ~0.3 nM | IC50 (read off the curve) [4]: ~2 µg/mL
2 | B2 | 24.5 nM | 3760 nM |  | 
3 | B3 | 31.7 nM | 1330 nM |  | 
4 | B4 | 25.5 nM | 31.5 nM |  | 
5 | B5 |  | 1.41 nM | ~0.06 nM | EC50 (read off the curve) (mouse renalase [5]): ~0.08 nM
6 | B6 | 1700 nM | 17.5 nM | ~0.05 nM | EC50 (read off the curve) (mouse renalase [5]): ~0.06 nM
7 | B7 |  |  |  | EC50 (read off the curve) [6]: ~0.3 µg/mL; binding result [7]: no binding (tested: 1000 ng/ml)
8 | B8 |  |  |  | EC50 (read off the curve) [6]: ~0.3 µg/mL; binding result [7]: no binding (tested: 1000 ng/ml); IC50 (read off the curve) [8]: ~1 µg/mL
9 | B9 |  |  |  | binding result [9]: binds
